The target in test [1] is LIFR labelled with fluorescent dye (MST target) (UniProt P42702 45-1097, fluorescent dye, NHS chemistry). Kind of test: MST.
The target in another test is T1, Human LIFR-Fc (human, UniProt P42702 45-833).
T1 sequence (looked up): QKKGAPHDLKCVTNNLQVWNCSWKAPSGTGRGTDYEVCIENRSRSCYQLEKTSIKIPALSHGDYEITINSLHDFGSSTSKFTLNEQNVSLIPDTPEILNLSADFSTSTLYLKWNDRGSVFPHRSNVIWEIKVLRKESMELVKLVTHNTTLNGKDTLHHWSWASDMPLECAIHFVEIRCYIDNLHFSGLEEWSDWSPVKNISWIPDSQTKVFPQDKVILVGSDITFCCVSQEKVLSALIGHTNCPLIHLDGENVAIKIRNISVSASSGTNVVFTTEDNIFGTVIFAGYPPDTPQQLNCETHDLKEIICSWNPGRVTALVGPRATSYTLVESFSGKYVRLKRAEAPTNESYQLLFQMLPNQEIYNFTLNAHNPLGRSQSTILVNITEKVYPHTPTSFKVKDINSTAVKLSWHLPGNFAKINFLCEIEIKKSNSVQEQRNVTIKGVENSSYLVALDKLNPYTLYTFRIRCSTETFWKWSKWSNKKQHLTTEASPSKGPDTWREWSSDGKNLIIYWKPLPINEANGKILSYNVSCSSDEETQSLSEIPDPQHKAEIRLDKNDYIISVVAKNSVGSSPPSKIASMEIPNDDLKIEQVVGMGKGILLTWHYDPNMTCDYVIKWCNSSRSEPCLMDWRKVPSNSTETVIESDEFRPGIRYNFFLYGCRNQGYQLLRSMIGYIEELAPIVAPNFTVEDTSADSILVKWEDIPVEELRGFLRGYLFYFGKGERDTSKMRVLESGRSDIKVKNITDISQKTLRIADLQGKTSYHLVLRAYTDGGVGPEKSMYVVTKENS
Kind of test: SPR. For orientation: Surface plasmon resonance follows binding to a sensor surface in real time, without labels.

This note sets out measurements from paper PMC6677593 (Molecular cancer therapeutics, 2019).

B1: Recombinant human leukemia inhibitory factor (LIF) (ligand)
chain: not shown
The term Kd denotes the free concentration of one partner at which half of the binding sites on the other are occupied at equilibrium, for simple one-to-one binding. A lower Kd goes with tighter binding. Take B1: the Kd in test [1] is 0.00136 µM; in the test with Human LIFR-Fc it was 7 µM.
